Patent publication EP4421166A1 (Max-Planck-Gesellschaft zur Förderung der Wissenschaften …, dated 2024)

Columns and labels:
[1] = target: T1, cpHaloΔ; assay: method not stated
T1 construct: Used as purified protein; also called original cpHaloΔ; first partial effector

[2] = target: LKPG-cpHaloΔ2-PDYE; assay: cell-based or functional assay
[3] = target: T2, cpHaloΔ2; assay: EC50 of the split-HaloTag labeling reaction (fluorescence polarization)
T2 construct: also called linker04/E20S/N119H/V184E/V197K; improved cpHaloΔ variant
T2 sequence (chain, as listed by the source mutant): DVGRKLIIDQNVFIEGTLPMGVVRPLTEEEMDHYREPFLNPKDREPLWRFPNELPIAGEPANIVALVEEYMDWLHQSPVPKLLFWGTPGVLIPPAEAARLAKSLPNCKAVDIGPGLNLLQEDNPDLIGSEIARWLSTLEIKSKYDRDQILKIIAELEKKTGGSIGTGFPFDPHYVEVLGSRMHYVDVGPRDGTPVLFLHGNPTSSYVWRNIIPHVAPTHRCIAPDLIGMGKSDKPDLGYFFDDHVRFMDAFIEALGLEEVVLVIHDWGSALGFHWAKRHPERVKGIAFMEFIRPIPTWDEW

LKPG-cpHaloΔ2-PDYE, sequence (chain, as listed by the source mutant): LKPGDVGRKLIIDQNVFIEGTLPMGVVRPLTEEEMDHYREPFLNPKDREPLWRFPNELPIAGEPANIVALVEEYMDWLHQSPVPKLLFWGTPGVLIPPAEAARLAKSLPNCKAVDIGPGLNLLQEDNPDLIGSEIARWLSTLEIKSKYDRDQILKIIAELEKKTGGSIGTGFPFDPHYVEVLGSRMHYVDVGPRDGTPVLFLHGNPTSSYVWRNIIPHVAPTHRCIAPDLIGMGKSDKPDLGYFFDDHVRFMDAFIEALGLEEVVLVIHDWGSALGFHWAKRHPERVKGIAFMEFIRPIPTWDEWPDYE
T1 sequence (chain, as listed by the source mutant): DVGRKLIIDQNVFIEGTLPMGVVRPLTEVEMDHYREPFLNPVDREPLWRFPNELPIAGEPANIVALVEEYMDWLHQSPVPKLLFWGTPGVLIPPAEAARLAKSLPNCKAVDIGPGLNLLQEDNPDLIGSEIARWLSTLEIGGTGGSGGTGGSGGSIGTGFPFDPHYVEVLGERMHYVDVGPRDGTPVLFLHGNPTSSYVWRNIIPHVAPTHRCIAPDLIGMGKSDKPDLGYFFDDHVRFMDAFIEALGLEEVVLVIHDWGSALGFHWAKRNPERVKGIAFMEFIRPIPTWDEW

B1: Hpep1 (peptide)
peptide: ARETFQAFRT
notes: Residues 145-154 of HaloTag; also called original Halo-Peptide; original Hpep (10mer)
Q: How did the Kd [1] turn out when B1 was run?
A: 4.6 mM

Q: How did the “EC50 of the labeling reaction” value [2] turn out when RGWSWREMFRLFRT [Hpep RGWSWREMFRLFRT] was run?
A: 382 pM

Q: What about the “fold lower EC50 than cpHaloΔ2” value [2] of the same binder?
A: 6.6 fold

Q: Does RGWSWREMFRLFRT [Hpep RGWSWREMFRLFRT] bind [3]?
A: binds

Q: Does RQWSWREMFRLFRT [Hpep RQWSWREMFRLFRT] bind [3]?
A: binds

Q: Does RMWTWREMFRLFRT [Hpep RMWTWREMFRLFRT] bind [3]?
A: binds
